Assay results published in patent US6051373, “Methods for screening for inhibitors of the transcription-enhancing activity of the X protein of hepatitis B virus” (Scriptgen Pharmaceuticals, Inc.).

T1: BR-CC (GCN4 basic region with idealized leucine zipper) (Saccharomyces cerevisiae)
T1 chain: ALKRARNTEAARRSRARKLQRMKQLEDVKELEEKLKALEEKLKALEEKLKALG

T2: ATF-2 (GST fusion) (UniProt P15336 P15336:144-505)
T2 sequence: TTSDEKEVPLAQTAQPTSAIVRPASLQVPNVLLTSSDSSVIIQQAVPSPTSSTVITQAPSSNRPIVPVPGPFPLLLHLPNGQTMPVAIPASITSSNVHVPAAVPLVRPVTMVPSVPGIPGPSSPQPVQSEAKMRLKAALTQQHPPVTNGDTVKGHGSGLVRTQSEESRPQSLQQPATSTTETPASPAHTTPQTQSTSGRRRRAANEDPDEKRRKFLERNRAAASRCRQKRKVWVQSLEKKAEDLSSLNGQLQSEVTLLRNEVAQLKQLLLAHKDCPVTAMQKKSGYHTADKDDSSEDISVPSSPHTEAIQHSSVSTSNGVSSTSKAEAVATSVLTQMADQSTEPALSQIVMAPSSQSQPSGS

T3: ATF-1 (GST fusion) (UniProt P18846 P18846:57-271)
T3 sequence: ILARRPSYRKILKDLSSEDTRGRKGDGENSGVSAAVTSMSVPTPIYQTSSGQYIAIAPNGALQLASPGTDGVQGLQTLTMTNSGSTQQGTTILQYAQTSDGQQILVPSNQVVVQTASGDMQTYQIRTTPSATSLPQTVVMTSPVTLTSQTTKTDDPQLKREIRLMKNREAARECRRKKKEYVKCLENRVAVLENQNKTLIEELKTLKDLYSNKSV

B1: collagenase TRE oligoduplex (dsDNA)
DNA 1: AGCTTTGACTCATCCCGGA
DNA 2: TCCGGGATGAGTCAAAGCT
B2: CRE core oligoduplex (dsDNA)
DNA 1: TCCTAAGTGACGTCAGTGGAA
DNA 2: TTCCACTGACGTCACTTAGGA

Assays:
ZTA minimal bZIP = ZTA minimal bZIP (Epstein-Barr virus, UniProt P03206 P03206:175-229); assay: EMSA; stimulated by pX; settings: chain copies: 2; label: 32P
Sequence of ZTA minimal bZIP (P03206 175-229, one chain of several): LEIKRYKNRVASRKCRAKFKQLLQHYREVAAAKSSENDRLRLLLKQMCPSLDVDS

[1] = biological target: T1, BR-CC (GCN4 basic region with idealized …); assay: EMSA; stimulated by pX; settings: protein: synthetic; tags: synthetic peptide; chain copies: 2; label: 32P
GCN4 minimal bZIP = GCN4 minimal bZIP (Saccharomyces cerevisiae, UniProt P03069 P03069:228-281); assay: EMSA; enhanced by pX; settings: protein: synthetic; tags: synthetic peptide per text; chain copies: 2; label: 32P
Sequence of GCN4 minimal bZIP (P03069 228-281, one chain of several): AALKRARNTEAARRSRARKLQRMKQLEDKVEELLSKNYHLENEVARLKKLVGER

CREB (GST fusion) = CREB (GST fusion) (UniProt P16220-1 P16220-1:23-341); assay: EMSA; low binding without pX, greatly increased by 100 ng pX; settings: tags: GST (pGEX-2T); chain copies: 2; label: 32P
Sequence of CREB (GST fusion) (P16220 other isoform, or with tags, fused parts or gaps): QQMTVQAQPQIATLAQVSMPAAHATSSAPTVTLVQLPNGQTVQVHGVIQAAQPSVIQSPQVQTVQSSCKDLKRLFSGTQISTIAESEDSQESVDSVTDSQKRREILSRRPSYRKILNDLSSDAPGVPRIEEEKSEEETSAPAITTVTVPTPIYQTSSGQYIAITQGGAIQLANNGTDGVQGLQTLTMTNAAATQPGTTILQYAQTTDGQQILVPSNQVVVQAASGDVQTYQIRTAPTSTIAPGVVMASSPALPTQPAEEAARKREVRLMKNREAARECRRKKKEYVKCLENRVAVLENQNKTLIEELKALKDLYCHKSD

pX = pX (Hepatitis B virus, UniProt P03165 P03165:1-154); assay: EMSA; no detectable interaction of pX with DNA without transcription factor; settings: tags: His (pRSET-C); label: 32P
Sequence of pX (P03165 whole entry, the tested form may be a part, one chain of several): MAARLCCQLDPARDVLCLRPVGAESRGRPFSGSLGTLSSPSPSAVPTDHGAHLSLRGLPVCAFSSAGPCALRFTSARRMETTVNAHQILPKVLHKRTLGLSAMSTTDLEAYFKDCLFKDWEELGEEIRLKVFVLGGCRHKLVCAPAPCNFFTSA

ATF-2 (GST fusion) = biological target: T2, ATF-2 (GST fusion); assay: EMSA; low binding without pX, greatly increased by pX; settings: tags: GST (pGEX-2T); chain copies: 2; label: 32P
ATF-1 (GST fusion) = biological target: T3, ATF-1 (GST fusion); assay: EMSA; low binding without pX, greatly increased by pX; TFIIB or E. coli extract no effect; settings: tags: GST (pGEX-2T); chain copies: 2; label: 32P

| Binder | binding result (ZTA minimal bZIP) | binding result [1] | binding result (GCN4 minimal bZIP) | binding result (CREB (GST fusion)) | binding result (pX) | binding result (ATF-2 (GST fusion)) | binding result (ATF-1 (GST fusion)) |
| --- | --- | --- | --- | --- | --- | --- | --- |
| B1 | binds | binds | binds | – | – | – | – |
| B2 | – | – | – | binds | no binding | binds | binds |
